In article PMC11201810 (Protein Science : A Publication of the Protein Society, 2024):
Values joined by “and” are separate entries in the source; they are usually repeats but may differ in a detail not shown here. Equal entries are not always repeated. Where two headings read alike, the source gives them in different places.

Columns and labels:
[1] = target: human βB2-crystallin W196F (human) (UniProt P43320); assay: SEC
[2] = target: human βB2-crystallin W196F (human) (UniProt P43320); assay: AUC
SEC [3] = target: the molecule itself; assay: SEC
AUC = target: the molecule itself; assay: AUC
SEC [4] = target: the molecule itself; assay: SEC; remark: listed apart in the source

Chain of human βB2-crystallin W196F (P43320 whole entry, stated change not applied): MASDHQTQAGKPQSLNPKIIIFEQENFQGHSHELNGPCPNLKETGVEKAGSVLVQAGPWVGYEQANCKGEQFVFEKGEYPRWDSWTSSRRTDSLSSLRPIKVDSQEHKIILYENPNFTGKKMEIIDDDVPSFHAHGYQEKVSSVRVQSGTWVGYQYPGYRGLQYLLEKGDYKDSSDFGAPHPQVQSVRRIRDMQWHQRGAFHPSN

stoichiometry N [1]	% dimer [2]	% tetramer [2]	Molecule	stoichiometry N (SEC [3])	% dimer (AUC)	% tetramer (AUC)	stoichiometry N (SEC [4])
4 and 2	83.4%	12.7%	human βB2-crystallin W196F (from UniProt P43320 1-205) (natural protein)	–	–	–	–
–	–	–	human βB2-crystallin W151F (natural protein, UniProt P43320 1-205, looked up) MASDHQTQAGKPQSLNPKIIIFEQENFQGHSHELNGPCPNLKETGVEKAGSVLVQAGPWVGYEQANCKGEQFVFEKGEYPRWDSWTSSRRTDSLSSLRPIKVDSQEHKIILYENPNFTGKKMEIIDDDVPSFHAHGYQEKVSSVRVQSGTFVGYQYPGYRGLQYLLEKGDYKDSSDFGAPHPQVQSVRRIRDMQWHQRGAFHPSN	2	92.2 ± 0.5%	2.7 ± 0.1%	–
–	–	–	human βB2-crystallin W82F (natural protein, UniProt P43320 1-205, looked up) MASDHQTQAGKPQSLNPKIIIFEQENFQGHSHELNGPCPNLKETGVEKAGSVLVQAGPWVGYEQANCKGEQFVFEKGEYPRFDSWTSSRRTDSLSSLRPIKVDSQEHKIILYENPNFTGKKMEIIDDDVPSFHAHGYQEKVSSVRVQSGTWVGYQYPGYRGLQYLLEKGDYKDSSDFGAPHPQVQSVRRIRDMQWHQRGAFHPSN	2 and 4	75.5 ± 0.3%	22.3 ± 0.2%	–
–	–	–	human βB2-crystallin W59F (natural protein, UniProt P43320 1-205, looked up) MASDHQTQAGKPQSLNPKIIIFEQENFQGHSHELNGPCPNLKETGVEKAGSVLVQAGPFVGYEQANCKGEQFVFEKGEYPRWDSWTSSRRTDSLSSLRPIKVDSQEHKIILYENPNFTGKKMEIIDDDVPSFHAHGYQEKVSSVRVQSGTWVGYQYPGYRGLQYLLEKGDYKDSSDFGAPHPQVQSVRRIRDMQWHQRGAFHPSN	2	48.7 ± 0.3%	36.1 ± 0.4%	4
–	–	–	human βB2-crystallin W85F (natural protein, UniProt P43320 1-205, looked up) MASDHQTQAGKPQSLNPKIIIFEQENFQGHSHELNGPCPNLKETGVEKAGSVLVQAGPWVGYEQANCKGEQFVFEKGEYPRWDSFTSSRRTDSLSSLRPIKVDSQEHKIILYENPNFTGKKMEIIDDDVPSFHAHGYQEKVSSVRVQSGTWVGYQYPGYRGLQYLLEKGDYKDSSDFGAPHPQVQSVRRIRDMQWHQRGAFHPSN	2 and 4	79.7 ± 0.6%	11.5 ± 0.6%	–
